According to article doi:10.1101/2021.08.20.457142:

B1: MKK6 D-site peptide / p38-alpha (MAPK14) L195A, full length (parent complex)
chain 1: SQSKGKKRNPGLKIPKEAFEQP
chain 2: MSQERPTFYRQELNKTVWEVPERYQNLSPVGSGAYGSVCAAFDTKTGHRVAVKKLSRPFQSIIHAKRTYRELRLLKHMKHENVIGLLDVFTPARSLEEFNDVYLVTHLMGADLNNIVKCQKLTDDHVQFLIYQILRGLKYIHSADIIHRDLKPSNLAVNEDCELKILDFGLARHTDDEMTGYVATRWYRAPEIMANWMHYNQTVDIWSVGCIMAELLTGRTLFPGTDHIDQLKLILRLVGTPGAELLKKISSESARNYIQSLAQMPKMNFANVFIGANPLAVDLLEKMLVLDSDKRITAAQALAHAYFAQYHDPDDEPVAEPYDQSFESRDFLIDEWKSLTYDEVISFVPPPLDQEEMES

Variants of: B1

screen value | Variant
-1.03 Z-score of the enrichment rate within one screen of 711 sequences | chain 1 G5A, chain 1 I14A
-0.792 Z-score of the enrichment rate within one screen of 711 sequences | chain 1 K4A, chain 1 R8A
-1 Z-score of the enrichment rate within one screen of 711 sequences | chain 1 R8D
0.227 Z-score of the enrichment rate within one screen of 711 sequences | chain 1 R8T
0.072 Z-score of the enrichment rate within one screen of 711 sequences | chain 1 R8H
0.378 Z-score of the enrichment rate within one screen of 711 sequences | chain 1 R8I
-0.954 Z-score of the enrichment rate within one screen of 711 sequences | chain 1 P10A, chain 1 I14A
-0.966 Z-score of the enrichment rate within one screen of 711 sequences | chain 1 I14K
-0.921 Z-score of the enrichment rate within one screen of 711 sequences | chain 1 I14E
-0.0574 Z-score of the enrichment rate within one screen of 711 sequences | chain 1 I14F
-0.578 Z-score of the enrichment rate within one screen of 711 sequences | chain 1 I14V
-1.07 Z-score of the enrichment rate within one screen of 711 sequences | chain 1 I14Q
0.162 Z-score of the enrichment rate within one screen of 711 sequences | chain 1 N9A, chain 1 K16A
-0.936 Z-score of the enrichment rate within one screen of 711 sequences | chain 1 S3A, chain 1 I14A
0.354 Z-score of the enrichment rate within one screen of 711 sequences | chain 1 K6A, chain 1 K16A
1.61 Z-score of the enrichment rate within one screen of 711 sequences | chain 1 N9A, chain 1 P15A
1.79 Z-score of the enrichment rate within one screen of 711 sequences | chain 1 G11A, chain 1 P15A
-0.113 Z-score of the enrichment rate within one screen of 711 sequences | chain 1 R8A, chain 1 N9A
1.18 Z-score of the enrichment rate within one screen of 711 sequences | chain 1 G5A, chain 1 G11A
0.044 Z-score of the enrichment rate within one screen of 711 sequences | chain 1 L12M

screen value | Variant
-0.212 Z-score of the enrichment rate within one screen of 711 sequences | chain 1 L12I
-1.21 Z-score of the enrichment rate within one screen of 711 sequences | chain 1 L12R
-1.12 Z-score of the enrichment rate within one screen of 711 sequences | chain 1 L12S
-1.11 Z-score of the enrichment rate within one screen of 711 sequences | chain 1 S3A, chain 1 L12A
2.82 Z-score of the enrichment rate within one screen of 711 sequences | chain 1 P15A
4.38 Z-score of the enrichment rate within one screen of 711 sequences | chain 1 P15C
-0.71 Z-score of the enrichment rate within one screen of 711 sequences | chain 1 K7A, chain 1 K13A
-1.24 Z-score of the enrichment rate within one screen of 711 sequences | chain 1 K4A, chain 1 L12A
0.746 Z-score of the enrichment rate within one screen of 711 sequences | chain 1 K6N
0.469 Z-score of the enrichment rate within one screen of 711 sequences | chain 1 K6T
1.13 Z-score of the enrichment rate within one screen of 711 sequences | chain 1 K6F
0.638 Z-score of the enrichment rate within one screen of 711 sequences | chain 1 K6H
0.0296 Z-score of the enrichment rate within one screen of 711 sequences | chain 1 K7A, chain 1 K16A
1.66 Z-score of the enrichment rate within one screen of 711 sequences | chain 1 S3L
1.42 Z-score of the enrichment rate within one screen of 711 sequences | chain 1 S3V
0.582 Z-score of the enrichment rate within one screen of 711 sequences | chain 1 S3A, chain 1 K4A
-0.524 Z-score of the enrichment rate within one screen of 711 sequences | chain 1 K6A, chain 1 R8A
-0.309 Z-score of the enrichment rate within one screen of 711 sequences | chain 1 K13A, chain 1 P15A
-0.276 Z-score of the enrichment rate within one screen of 711 sequences | chain 1 P10A, chain 1 K16A

Further lines, the variant ahead of its results:

Variant | screen value
chain 1 K4R | 2.04 Z-score of the enrichment rate within one screen of 711 sequences
chain 1 L12A, chain 1 I14A | -1.27 Z-score of the enrichment rate within one screen of 711 sequences
chain 1 R8M | -0.224 Z-score of the enrichment rate within one screen of 711 sequences
chain 1 R8A | -0.149 Z-score of the enrichment rate within one screen of 711 sequences
chain 1 R8C | -0.13 Z-score of the enrichment rate within one screen of 711 sequences
chain 1 S3A, chain 1 K7A | 0.46 Z-score of the enrichment rate within one screen of 711 sequences
chain 1 I14L | 3.12 Z-score of the enrichment rate within one screen of 711 sequences
chain 1 I14A | -0.785 Z-score of the enrichment rate within one screen of 711 sequences
chain 1 I14D | -0.97 Z-score of the enrichment rate within one screen of 711 sequences
chain 1 I14H | -0.748 Z-score of the enrichment rate within one screen of 711 sequences
chain 1 K7A, chain 1 L12A | -1.2 Z-score of the enrichment rate within one screen of 711 sequences
chain 1 S3A, chain 1 N9A | 1.3 Z-score of the enrichment rate within one screen of 711 sequences
chain 1 K7A, chain 1 G11A | 0.113 Z-score of the enrichment rate within one screen of 711 sequences
chain 1 N9A, chain 1 I14A | -0.573 Z-score of the enrichment rate within one screen of 711 sequences
chain 1 R8A, chain 1 P10A | -0.354 Z-score of the enrichment rate within one screen of 711 sequences
chain 1 R8A, chain 1 P15A | 0.201 Z-score of the enrichment rate within one screen of 711 sequences
chain 1 G5A, chain 1 N9A | 1.1 Z-score of the enrichment rate within one screen of 711 sequences
chain 1 L12D | -1.05 Z-score of the enrichment rate within one screen of 711 sequences

Variant | screen value
chain 1 L12E | -1.29 Z-score of the enrichment rate within one screen of 711 sequences
chain 1 P15F | 1.25 Z-score of the enrichment rate within one screen of 711 sequences
chain 1 P15L | 1.3 Z-score of the enrichment rate within one screen of 711 sequences
chain 1 P15N | 2.75 Z-score of the enrichment rate within one screen of 711 sequences
chain 1 P10A, chain 1 K13A | -0.927 Z-score of the enrichment rate within one screen of 711 sequences
chain 1 K6A, chain 1 K7A | -0.229 Z-score of the enrichment rate within one screen of 711 sequences
chain 1 P10A, chain 1 G11A | 0.0844 Z-score of the enrichment rate within one screen of 711 sequences
chain 1 K6S | 0.535 Z-score of the enrichment rate within one screen of 711 sequences
chain 1 K6L | 1.2 Z-score of the enrichment rate within one screen of 711 sequences
chain 1 K6I | 0.848 Z-score of the enrichment rate within one screen of 711 sequences
chain 1 K6A, chain 1 P10A | -0.354 Z-score of the enrichment rate within one screen of 711 sequences
chain 1 P10A, chain 1 P15A | 0.87 Z-score of the enrichment rate within one screen of 711 sequences
chain 1 S3A, chain 1 G11A | 0.988 Z-score of the enrichment rate within one screen of 711 sequences
chain 1 S3I | 2 Z-score of the enrichment rate within one screen of 711 sequences
chain 1 S3K | 2.42 Z-score of the enrichment rate within one screen of 711 sequences
chain 1 S3E | 0.822 Z-score of the enrichment rate within one screen of 711 sequences
chain 1 S3F | 1.62 Z-score of the enrichment rate within one screen of 711 sequences
chain 1 S3W | 2.4 Z-score of the enrichment rate within one screen of 711 sequences
